In patent EP1852441B1 (The Burnham Institute, dated 2004):
Values belong to the binder of their own block, whether it stands above or below them. Where no end group is shown, it is not given here.

Tests used:
[1] = biological target: T1, histidine-tagged mouse EphA2 Fc fusion protein (mouse, UniProt Q03145 26-535, limits assumed); assay: SPR (BIAcore 3000), EphA2 Fc coupled to the chip, equilibrium binding
T1 construct: Bought; also called Eph2 Fc; not shown: Fc region; histidine tag

[2] = biological target: T2, EphB4 Fc; assay: immobilized biotinylated peptide capturing Eph receptor Fc
T2 construct: also called EpbB4
T2 sequence (P54761 16-539): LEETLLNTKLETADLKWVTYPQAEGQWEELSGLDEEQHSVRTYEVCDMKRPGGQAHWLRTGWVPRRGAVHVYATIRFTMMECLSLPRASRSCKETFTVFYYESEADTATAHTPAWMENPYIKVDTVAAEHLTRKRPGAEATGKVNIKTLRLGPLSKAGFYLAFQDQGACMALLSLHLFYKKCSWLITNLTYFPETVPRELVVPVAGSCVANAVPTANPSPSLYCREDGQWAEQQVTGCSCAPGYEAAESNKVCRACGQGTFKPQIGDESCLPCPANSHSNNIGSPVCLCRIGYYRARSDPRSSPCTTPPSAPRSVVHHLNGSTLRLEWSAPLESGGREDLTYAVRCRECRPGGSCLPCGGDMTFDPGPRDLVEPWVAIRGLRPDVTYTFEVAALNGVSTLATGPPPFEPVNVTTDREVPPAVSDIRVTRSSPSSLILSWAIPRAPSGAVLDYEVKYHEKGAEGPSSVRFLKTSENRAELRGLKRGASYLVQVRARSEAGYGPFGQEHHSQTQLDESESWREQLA

T1 sequence (Q03145 26-535 limits assumed): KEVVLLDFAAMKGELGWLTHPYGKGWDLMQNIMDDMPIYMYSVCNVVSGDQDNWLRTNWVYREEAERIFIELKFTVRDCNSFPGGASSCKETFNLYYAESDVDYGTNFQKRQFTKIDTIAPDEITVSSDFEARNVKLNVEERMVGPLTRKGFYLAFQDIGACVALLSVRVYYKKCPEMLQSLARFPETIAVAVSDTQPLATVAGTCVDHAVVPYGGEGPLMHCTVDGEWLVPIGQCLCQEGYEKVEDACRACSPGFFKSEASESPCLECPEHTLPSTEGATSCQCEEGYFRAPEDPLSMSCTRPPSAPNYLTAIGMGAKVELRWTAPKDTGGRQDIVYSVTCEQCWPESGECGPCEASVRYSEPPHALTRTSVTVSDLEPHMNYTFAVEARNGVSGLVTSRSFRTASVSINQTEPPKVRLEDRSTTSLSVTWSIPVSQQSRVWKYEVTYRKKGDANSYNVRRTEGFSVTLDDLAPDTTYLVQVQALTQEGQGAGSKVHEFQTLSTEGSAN

Kd [1]: 678 nM
B1: synthetic SWL peptide (SWLAYPGAVSYR) (peptide)
peptide: SWLAYPGAVSYRGSGSK
modifications: also: biotinylated (position not given here)

fold more EphB4 bound than other EphB family receptors [2]: 4 fold
B2: synthetic DAL peptide (DALNDWLLFRPW) (peptide)
peptide: DALNDWLLFRPWGSGSK
modifications: also: biotinylated (position not given here)
